Experimental findings from article PMC3794606, “Transactivation specificity is conserved among p53 family proteins and depends on a response element sequence code” (Nucleic Acids Research, 2013) are described below.

Data set [1] concerns the molecule itself. The data set is described as follows: crystal structure; p73DBD S139F mixed at 2:1 molar ratio with annealed 20 bp DNA (…); hanging drop, 0.1 M Tris pH 8.5, 50-125 mM sodium acetate, 20-24% PEG 3350, room temperature; 3.7 A; asymmetric unit holds two protein molecules and one 10 bp half-site, the tetramer is made by crystal symmetry.
Data set [2] concerns the target T1, p73 DBD S139F (human, UniProt O15350 115-312, S139F).
T1 sequence: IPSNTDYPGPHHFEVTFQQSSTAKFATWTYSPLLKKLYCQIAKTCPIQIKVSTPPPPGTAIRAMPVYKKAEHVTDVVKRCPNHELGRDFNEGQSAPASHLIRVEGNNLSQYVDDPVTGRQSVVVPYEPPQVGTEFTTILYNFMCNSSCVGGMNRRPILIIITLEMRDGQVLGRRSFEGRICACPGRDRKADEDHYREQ
The data set is described as follows: fluorescence polarization; Hill 1.5 ± 0.2; FP: 50 nM fluorescein-DNA, 0-20000 nM protein, 30 min on ice then room temperature; buffer, salt and pH not stated. Crystals: 0.1 M Tris pH 8.5, 50-125 mM sodium acetate, 20-24% PEG 3350, room temperature. Particulars: protein: recombinant; chain copies: 2; label: fluorescein; self-complementary. (In fluorescence polarisation assays a small probe gives low polarisation when free and higher when bound to something large.)

For data set [3], the target named is T2, deltaNp73delta isoform WT (UniProt O15350-4 63-403).
T2 sequence: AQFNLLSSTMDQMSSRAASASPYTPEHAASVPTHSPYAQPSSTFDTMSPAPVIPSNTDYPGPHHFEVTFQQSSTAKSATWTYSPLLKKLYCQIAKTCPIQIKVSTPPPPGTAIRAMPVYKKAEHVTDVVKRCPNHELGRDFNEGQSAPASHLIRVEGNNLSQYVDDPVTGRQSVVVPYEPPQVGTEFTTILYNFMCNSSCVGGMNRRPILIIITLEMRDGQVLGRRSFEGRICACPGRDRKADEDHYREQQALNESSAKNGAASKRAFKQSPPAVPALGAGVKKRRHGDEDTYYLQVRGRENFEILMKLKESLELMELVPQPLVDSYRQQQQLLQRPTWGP
The data set is described as follows: fluorescence polarization; FP: 50 nM fluorescein-DNA, 0-20000 nM protein, 30 min on ice then room temperature; buffer, salt and pH not stated. Crystals: 0.1 M Tris pH 8.5, 50-125 mM sodium acetate, 20-24% PEG 3350, room temperature. Particulars: protein: recombinant, chain copies: 4, label: fluorescein.

For data set [4], the target named is T1, p73 DBD S139F. The data set is described as follows: fluorescence polarization; Hill 1.9 ± 0.2; FP: 50 nM fluorescein-DNA, 0-20000 nM protein, 30 min on ice then room temperature; buffer, salt and pH not stated. Crystals: 0.1 M Tris pH 8.5, 50-125 mM sodium acetate, 20-24% PEG 3350, room temperature. Particulars: protein: recombinant; chain copies: 2; label: fluorescein.

In data set [5] the target is T1, p73 DBD S139F. The data set is described as follows: fluorescence polarization; Hill 1.7 ± 0.1; FP: 50 nM fluorescein-DNA, 0-20000 nM protein, 30 min on ice then room temperature; buffer, salt and pH not stated. Crystals: 0.1 M Tris pH 8.5, 50-125 mM sodium acetate, 20-24% PEG 3350, room temperature. Particulars: protein: recombinant; chain copies: 2; label: fluorescein; self-complementary.

B1: p73DBD S139F (human p73 DNA-binding domain, residues 115-312, S139F mutant) (domain or fragment, UniProt O15350 115-312, looked up)
chain: T1 sequence
notes: Crystallised with a 20 bp GAACA full-site DNA; On the DNA it forms a tetramer (dimer of dimers); also called p73 S139F DBD; S139F DBD mutant
For B1, the stoichiometry N (as a rule, the number of molecules, sites or subunits per partner or assembly) in data set [1] turned out to be 4.

B2: 12mer GGGCA half-site (dsDNA)
DNA 1: TGGGCATGCCCA
DNA 2: TGGGCATGCCCA
Turning to B2, the Kd – broadly, the free concentration of one partner at which half of the binding sites on the other are occupied at equilibrium, for simple one-to-one binding – with p73 DBD S139F [2] was determined as 1540 nM.

B3: 20mer GGGCA full-site (4/4 RY) (dsDNA)
DNA 1: GGGCATGCCCGGGCATGCCC
DNA 2: GGGCATGCCCGGGCATGCCC
In the case of B3, the Kd in data set [3] amounted to 160 nM; with p73 DBD S139F [4], 230 nM.

B4: 20mer GAACA full-site (0/4 RY) (dsDNA)
DNA 1: GAACATGTTCGAACATGTTC
DNA 2: GAACATGTTCGAACATGTTC
With B4, the figures for the dissociation constant (Kd) (with p73 DBD S139F [5]; in data set [3] (self-complementary)) were 4480 nM and 940 nM, respectively.
